Our source for the Ho/Con_1a and He/Con_1a values is US20150344570A1 (published 2015).

Assay [1] deals with T1, FcγRIa (human, UniProt P12314 16-292).
T1 construct: extracellular domain; soluble extracellular domain with C-terminal His tag, expressed in FreeStyle293 cells; also called FcgRI; FcgRIa
As to the kind of experiment: SPR (Biacore), captured antibody, FcγRIa analyte; relative to HoCon Ab GpH7-B3/GpL16-k0 = 100. (Surface plasmon resonance follows binding to a sensor surface in real time, without labels.)

Assay [2] deals with T1, FcγRIa. As to the kind of experiment: SPR (Biacore), captured antibody, FcγRIa analyte; relative to HeCon Ab GpH7-A5/GpH7-B3/GpL16-k0 = 100.

T1 sequence (P12314 16-292): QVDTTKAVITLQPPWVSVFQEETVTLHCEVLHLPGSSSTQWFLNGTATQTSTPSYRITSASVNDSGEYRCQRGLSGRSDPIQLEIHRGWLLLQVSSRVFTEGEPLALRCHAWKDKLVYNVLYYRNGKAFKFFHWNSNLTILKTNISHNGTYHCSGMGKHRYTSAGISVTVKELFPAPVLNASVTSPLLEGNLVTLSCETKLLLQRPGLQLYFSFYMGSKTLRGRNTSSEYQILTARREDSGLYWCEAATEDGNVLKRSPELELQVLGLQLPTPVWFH

B1: GpH7-B3 variant S267_03V/GpL16-k0 (antibody, human IgG1, kappa)
heavy: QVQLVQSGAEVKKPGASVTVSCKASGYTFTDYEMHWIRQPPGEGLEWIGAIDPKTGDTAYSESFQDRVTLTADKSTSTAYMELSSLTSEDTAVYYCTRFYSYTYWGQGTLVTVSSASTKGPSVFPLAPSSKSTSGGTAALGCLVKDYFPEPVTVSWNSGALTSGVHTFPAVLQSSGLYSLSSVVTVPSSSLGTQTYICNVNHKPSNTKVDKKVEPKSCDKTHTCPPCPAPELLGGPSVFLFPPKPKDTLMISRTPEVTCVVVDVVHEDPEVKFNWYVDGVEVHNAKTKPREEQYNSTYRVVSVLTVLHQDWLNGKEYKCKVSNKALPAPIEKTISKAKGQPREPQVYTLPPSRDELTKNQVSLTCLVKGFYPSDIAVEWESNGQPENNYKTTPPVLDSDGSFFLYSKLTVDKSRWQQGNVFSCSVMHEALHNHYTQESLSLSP
light: DIVMTQSPLSLPVTPGEPASISCQASESLVHSNRNTYLHWYLQKPGQSPQLLIYKVSNRFSGVPDRFSGSGSGTDFTLKISRVEAEDVGVYYCSQNTHVPPTFGQGTKVEIERTVAAPSVFIFPPSDEQLKSGTASVVCLLNNFYPREAKVQWKVDNALQSGNSQESVTEQDSKDSTYSLSSTLTLSKADYEKHKVYACEVTHQGLSSPVTKSFNRGEC
notes: homodimerized IgG1, mutation in both H chains; also called Ho Ab
Take B1: the Ho/Con_1a in assay [1] was 102 % of control.

B2: GpH7-A5/GpH7-B3 variant P271_02A/GpL16-k0 (antibody, human IgG1, kappa)
heavy 1: not shown
heavy 2: not shown
light: DIVMTQSPLSLPVTPGEPASISCQASESLVHSNRNTYLHWYLQKPGQSPQLLIYKVSNRFSGVPDRFSGSGSGTDFTLKISRVEAEDVGVYYCSQNTHVPPTFGQGTKVEIERTVAAPSVFIFPPSDEQLKSGTASVVCLLNNFYPREAKVQWKVDNALQSGNSQESVTEQDSKDSTYSLSSTLTLSKADYEKHKVYACEVTHQGLSSPVTKSFNRGEC
notes: heterodimerized IgG1, mutation in one H chain; also called He Ab
With B2, in assay [2], the He/Con_1a is 104 % of control.

B3: GpH7-B3 variant S298_08L/GpL16-k0 (antibody, human IgG1, kappa)
heavy: not shown
light: DIVMTQSPLSLPVTPGEPASISCQASESLVHSNRNTYLHWYLQKPGQSPQLLIYKVSNRFSGVPDRFSGSGSGTDFTLKISRVEAEDVGVYYCSQNTHVPPTFGQGTKVEIERTVAAPSVFIFPPSDEQLKSGTASVVCLLNNFYPREAKVQWKVDNALQSGNSQESVTEQDSKDSTYSLSSTLTLSKADYEKHKVYACEVTHQGLSSPVTKSFNRGEC
notes: as for B1
As for B3, in assay [1], the Ho/Con_1a is 104 % of control.

B4: GpH7-B3 variant S298_18N/GpL16-k0 (antibody, human IgG1, kappa)
heavy: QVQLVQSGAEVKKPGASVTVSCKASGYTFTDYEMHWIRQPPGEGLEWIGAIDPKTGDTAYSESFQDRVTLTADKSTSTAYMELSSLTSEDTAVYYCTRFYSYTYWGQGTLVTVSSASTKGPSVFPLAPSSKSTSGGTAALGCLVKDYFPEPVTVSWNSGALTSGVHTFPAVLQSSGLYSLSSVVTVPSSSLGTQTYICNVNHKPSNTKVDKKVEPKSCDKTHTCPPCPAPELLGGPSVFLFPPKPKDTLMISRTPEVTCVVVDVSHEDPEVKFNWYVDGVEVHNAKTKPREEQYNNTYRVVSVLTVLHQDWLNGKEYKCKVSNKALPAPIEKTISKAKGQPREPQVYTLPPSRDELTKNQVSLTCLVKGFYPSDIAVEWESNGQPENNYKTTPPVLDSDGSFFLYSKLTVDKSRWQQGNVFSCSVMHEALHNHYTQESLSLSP
light: DIVMTQSPLSLPVTPGEPASISCQASESLVHSNRNTYLHWYLQKPGQSPQLLIYKVSNRFSGVPDRFSGSGSGTDFTLKISRVEAEDVGVYYCSQNTHVPPTFGQGTKVEIERTVAAPSVFIFPPSDEQLKSGTASVVCLLNNFYPREAKVQWKVDNALQSGNSQESVTEQDSKDSTYSLSSTLTLSKADYEKHKVYACEVTHQGLSSPVTKSFNRGEC
notes: as for B1
For the molecule B4, in assay [1], the Ho/Con_1a is 104 % of control.

B5: GpH7-B3 variant S324_20W/GpL16-k0 (antibody, human IgG1, kappa)
heavy: not shown
light: DIVMTQSPLSLPVTPGEPASISCQASESLVHSNRNTYLHWYLQKPGQSPQLLIYKVSNRFSGVPDRFSGSGSGTDFTLKISRVEAEDVGVYYCSQNTHVPPTFGQGTKVEIERTVAAPSVFIFPPSDEQLKSGTASVVCLLNNFYPREAKVQWKVDNALQSGNSQESVTEQDSKDSTYSLSSTLTLSKADYEKHKVYACEVTHQGLSSPVTKSFNRGEC
notes: as for B1
In the case of B5, in assay [1], the Ho/Con_1a was 112 % of control.

B6: GpH7-B3 variant S324_03V/GpL16-k0 (antibody, human IgG1, kappa)
heavy: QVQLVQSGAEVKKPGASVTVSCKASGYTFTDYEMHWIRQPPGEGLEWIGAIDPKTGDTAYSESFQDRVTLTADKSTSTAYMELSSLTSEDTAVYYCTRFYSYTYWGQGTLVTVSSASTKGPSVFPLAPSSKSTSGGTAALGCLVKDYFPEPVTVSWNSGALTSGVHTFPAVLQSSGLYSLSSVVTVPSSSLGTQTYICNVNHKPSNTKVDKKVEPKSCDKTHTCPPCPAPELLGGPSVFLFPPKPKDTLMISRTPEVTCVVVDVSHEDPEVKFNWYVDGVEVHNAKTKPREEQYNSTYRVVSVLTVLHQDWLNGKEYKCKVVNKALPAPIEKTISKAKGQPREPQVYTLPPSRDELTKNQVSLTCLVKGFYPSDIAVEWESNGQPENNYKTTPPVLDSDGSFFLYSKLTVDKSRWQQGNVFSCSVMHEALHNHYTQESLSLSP
light: DIVMTQSPLSLPVTPGEPASISCQASESLVHSNRNTYLHWYLQKPGQSPQLLIYKVSNRFSGVPDRFSGSGSGTDFTLKISRVEAEDVGVYYCSQNTHVPPTFGQGTKVEIERTVAAPSVFIFPPSDEQLKSGTASVVCLLNNFYPREAKVQWKVDNALQSGNSQESVTEQDSKDSTYSLSSTLTLSKADYEKHKVYACEVTHQGLSSPVTKSFNRGEC
notes: as for B1
Turning to B6, the Ho/Con_1a in assay [1] was 103 % of control.

B7: GpH7-B3 variant S298_15Y/GpL16-k0 (antibody, human IgG1, kappa)
heavy: not shown
light: DIVMTQSPLSLPVTPGEPASISCQASESLVHSNRNTYLHWYLQKPGQSPQLLIYKVSNRFSGVPDRFSGSGSGTDFTLKISRVEAEDVGVYYCSQNTHVPPTFGQGTKVEIERTVAAPSVFIFPPSDEQLKSGTASVVCLLNNFYPREAKVQWKVDNALQSGNSQESVTEQDSKDSTYSLSSTLTLSKADYEKHKVYACEVTHQGLSSPVTKSFNRGEC
notes: as for B1
As for B7, in assay [1], the Ho/Con_1a was 103 % of control.

B8: GpH7-B3 variant S298_03V/GpL16-k0 (antibody, human IgG1, kappa)
heavy: not shown
light: DIVMTQSPLSLPVTPGEPASISCQASESLVHSNRNTYLHWYLQKPGQSPQLLIYKVSNRFSGVPDRFSGSGSGTDFTLKISRVEAEDVGVYYCSQNTHVPPTFGQGTKVEIERTVAAPSVFIFPPSDEQLKSGTASVVCLLNNFYPREAKVQWKVDNALQSGNSQESVTEQDSKDSTYSLSSTLTLSKADYEKHKVYACEVTHQGLSSPVTKSFNRGEC
notes: as for B1
Take B8: in assay [1], the Ho/Con_1a is 106 % of control.

B9: GpH7-B3 variant S337_02A/GpL16-k0 (antibody, human IgG1, kappa)
heavy: not shown
light: DIVMTQSPLSLPVTPGEPASISCQASESLVHSNRNTYLHWYLQKPGQSPQLLIYKVSNRFSGVPDRFSGSGSGTDFTLKISRVEAEDVGVYYCSQNTHVPPTFGQGTKVEIERTVAAPSVFIFPPSDEQLKSGTASVVCLLNNFYPREAKVQWKVDNALQSGNSQESVTEQDSKDSTYSLSSTLTLSKADYEKHKVYACEVTHQGLSSPVTKSFNRGEC
notes: as for B1
For the molecule B9, in assay [1], the Ho/Con_1a is 103 % of control.

B10: GpH7-B3 variant S324_02A/GpL16-k0 (antibody, human IgG1, kappa)
heavy: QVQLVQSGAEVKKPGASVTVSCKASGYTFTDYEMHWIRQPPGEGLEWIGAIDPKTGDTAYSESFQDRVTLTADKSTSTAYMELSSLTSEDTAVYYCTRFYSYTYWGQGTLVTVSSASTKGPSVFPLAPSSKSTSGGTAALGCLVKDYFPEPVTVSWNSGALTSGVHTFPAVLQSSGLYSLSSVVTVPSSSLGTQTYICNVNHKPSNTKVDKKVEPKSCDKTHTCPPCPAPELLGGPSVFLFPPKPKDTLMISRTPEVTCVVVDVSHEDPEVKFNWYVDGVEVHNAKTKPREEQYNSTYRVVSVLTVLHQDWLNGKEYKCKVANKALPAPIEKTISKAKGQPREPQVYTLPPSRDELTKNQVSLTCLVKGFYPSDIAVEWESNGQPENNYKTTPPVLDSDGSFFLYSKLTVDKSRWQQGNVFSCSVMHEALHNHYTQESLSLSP
light: DIVMTQSPLSLPVTPGEPASISCQASESLVHSNRNTYLHWYLQKPGQSPQLLIYKVSNRFSGVPDRFSGSGSGTDFTLKISRVEAEDVGVYYCSQNTHVPPTFGQGTKVEIERTVAAPSVFIFPPSDEQLKSGTASVVCLLNNFYPREAKVQWKVDNALQSGNSQESVTEQDSKDSTYSLSSTLTLSKADYEKHKVYACEVTHQGLSSPVTKSFNRGEC
notes: as for B1
Consider B10, for which the Ho/Con_1a in assay [1] was 103 % of control.

B11: GpH7-B3 variant S324_08L/GpL16-k0 (antibody, human IgG1, kappa)
heavy: not shown
light: DIVMTQSPLSLPVTPGEPASISCQASESLVHSNRNTYLHWYLQKPGQSPQLLIYKVSNRFSGVPDRFSGSGSGTDFTLKISRVEAEDVGVYYCSQNTHVPPTFGQGTKVEIERTVAAPSVFIFPPSDEQLKSGTASVVCLLNNFYPREAKVQWKVDNALQSGNSQESVTEQDSKDSTYSLSSTLTLSKADYEKHKVYACEVTHQGLSSPVTKSFNRGEC
notes: as for B1
In the case of B11, in assay [1], the Ho/Con_1a is 103 % of control.

B12: GpH7-B3 variant S324_19Q/GpL16-k0 (antibody, human IgG1, kappa)
heavy: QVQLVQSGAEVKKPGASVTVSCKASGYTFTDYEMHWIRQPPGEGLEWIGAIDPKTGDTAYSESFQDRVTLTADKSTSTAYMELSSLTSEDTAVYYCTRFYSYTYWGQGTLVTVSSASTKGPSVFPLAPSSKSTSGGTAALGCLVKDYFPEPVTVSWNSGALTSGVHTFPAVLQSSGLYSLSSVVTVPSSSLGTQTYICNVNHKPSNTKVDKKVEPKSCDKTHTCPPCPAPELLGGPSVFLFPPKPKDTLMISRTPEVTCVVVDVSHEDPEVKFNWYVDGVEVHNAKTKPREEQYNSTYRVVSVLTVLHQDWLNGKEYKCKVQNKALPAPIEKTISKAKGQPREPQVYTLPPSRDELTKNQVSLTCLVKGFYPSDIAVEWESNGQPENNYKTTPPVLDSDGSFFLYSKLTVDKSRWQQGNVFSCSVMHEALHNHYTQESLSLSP
light: DIVMTQSPLSLPVTPGEPASISCQASESLVHSNRNTYLHWYLQKPGQSPQLLIYKVSNRFSGVPDRFSGSGSGTDFTLKISRVEAEDVGVYYCSQNTHVPPTFGQGTKVEIERTVAAPSVFIFPPSDEQLKSGTASVVCLLNNFYPREAKVQWKVDNALQSGNSQESVTEQDSKDSTYSLSSTLTLSKADYEKHKVYACEVTHQGLSSPVTKSFNRGEC
notes: as for B1
B12: the Ho/Con_1a in assay [1] was 111 % of control.

B13: GpH7-B3 variant S298_10E/GpL16-k0 (antibody, human IgG1, kappa)
heavy: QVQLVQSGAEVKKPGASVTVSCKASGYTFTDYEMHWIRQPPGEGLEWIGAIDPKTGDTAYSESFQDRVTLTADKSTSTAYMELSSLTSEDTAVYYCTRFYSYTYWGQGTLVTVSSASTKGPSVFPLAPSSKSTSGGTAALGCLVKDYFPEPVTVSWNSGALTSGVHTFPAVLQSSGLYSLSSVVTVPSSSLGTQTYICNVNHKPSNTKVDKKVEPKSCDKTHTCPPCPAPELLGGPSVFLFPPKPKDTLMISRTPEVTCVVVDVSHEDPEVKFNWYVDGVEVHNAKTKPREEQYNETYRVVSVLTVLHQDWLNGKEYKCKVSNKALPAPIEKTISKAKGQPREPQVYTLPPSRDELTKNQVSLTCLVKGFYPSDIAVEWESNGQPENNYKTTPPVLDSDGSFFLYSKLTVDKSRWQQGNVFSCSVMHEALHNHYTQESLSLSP
light: DIVMTQSPLSLPVTPGEPASISCQASESLVHSNRNTYLHWYLQKPGQSPQLLIYKVSNRFSGVPDRFSGSGSGTDFTLKISRVEAEDVGVYYCSQNTHVPPTFGQGTKVEIERTVAAPSVFIFPPSDEQLKSGTASVVCLLNNFYPREAKVQWKVDNALQSGNSQESVTEQDSKDSTYSLSSTLTLSKADYEKHKVYACEVTHQGLSSPVTKSFNRGEC
notes: as for B1
With B13, the Ho/Con_1a in assay [1] is 106 % of control.

B14: GpH7-B3 variant S324_14T/GpL16-k0 (antibody, human IgG1, kappa)
heavy: not shown
light: DIVMTQSPLSLPVTPGEPASISCQASESLVHSNRNTYLHWYLQKPGQSPQLLIYKVSNRFSGVPDRFSGSGSGTDFTLKISRVEAEDVGVYYCSQNTHVPPTFGQGTKVEIERTVAAPSVFIFPPSDEQLKSGTASVVCLLNNFYPREAKVQWKVDNALQSGNSQESVTEQDSKDSTYSLSSTLTLSKADYEKHKVYACEVTHQGLSSPVTKSFNRGEC
notes: as for B1
As to B14, the Ho/Con_1a in assay [1] is 112 % of control.

B15: GpH7-B3 variant S298_19Q/GpL16-k0 (antibody, human IgG1, kappa)
heavy: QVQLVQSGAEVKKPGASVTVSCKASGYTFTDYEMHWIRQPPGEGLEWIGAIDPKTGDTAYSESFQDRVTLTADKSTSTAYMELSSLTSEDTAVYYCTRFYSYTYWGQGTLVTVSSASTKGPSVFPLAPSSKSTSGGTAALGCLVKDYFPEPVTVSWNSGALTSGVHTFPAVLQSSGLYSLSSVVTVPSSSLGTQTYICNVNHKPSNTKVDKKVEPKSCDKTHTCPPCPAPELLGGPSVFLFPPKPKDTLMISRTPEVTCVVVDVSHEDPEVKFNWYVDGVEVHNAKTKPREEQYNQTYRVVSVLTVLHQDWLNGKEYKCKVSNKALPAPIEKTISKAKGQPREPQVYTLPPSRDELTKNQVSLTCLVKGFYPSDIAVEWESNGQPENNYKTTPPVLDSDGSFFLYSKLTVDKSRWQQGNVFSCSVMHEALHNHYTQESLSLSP
light: DIVMTQSPLSLPVTPGEPASISCQASESLVHSNRNTYLHWYLQKPGQSPQLLIYKVSNRFSGVPDRFSGSGSGTDFTLKISRVEAEDVGVYYCSQNTHVPPTFGQGTKVEIERTVAAPSVFIFPPSDEQLKSGTASVVCLLNNFYPREAKVQWKVDNALQSGNSQESVTEQDSKDSTYSLSSTLTLSKADYEKHKVYACEVTHQGLSSPVTKSFNRGEC
notes: as for B1
Regarding B15, the Ho/Con_1a in assay [1] is 105 % of control.

B16: GpH7-B3 variant S298_14T/GpL16-k0 (antibody, human IgG1, kappa)
heavy: not shown
light: DIVMTQSPLSLPVTPGEPASISCQASESLVHSNRNTYLHWYLQKPGQSPQLLIYKVSNRFSGVPDRFSGSGSGTDFTLKISRVEAEDVGVYYCSQNTHVPPTFGQGTKVEIERTVAAPSVFIFPPSDEQLKSGTASVVCLLNNFYPREAKVQWKVDNALQSGNSQESVTEQDSKDSTYSLSSTLTLSKADYEKHKVYACEVTHQGLSSPVTKSFNRGEC
notes: as for B1
On to B16, for which the Ho/Con_1a in assay [1] was 106 % of control.

B17: GpH7-B3 variant S298_07I/GpL16-k0 (antibody, human IgG1, kappa)
heavy: not shown
light: DIVMTQSPLSLPVTPGEPASISCQASESLVHSNRNTYLHWYLQKPGQSPQLLIYKVSNRFSGVPDRFSGSGSGTDFTLKISRVEAEDVGVYYCSQNTHVPPTFGQGTKVEIERTVAAPSVFIFPPSDEQLKSGTASVVCLLNNFYPREAKVQWKVDNALQSGNSQESVTEQDSKDSTYSLSSTLTLSKADYEKHKVYACEVTHQGLSSPVTKSFNRGEC
notes: as for B1
For B17, the Ho/Con_1a in assay [1] was 103 % of control.

B18: GpH7-B3 variant S337_03V/GpL16-k0 (antibody, human IgG1, kappa)
heavy: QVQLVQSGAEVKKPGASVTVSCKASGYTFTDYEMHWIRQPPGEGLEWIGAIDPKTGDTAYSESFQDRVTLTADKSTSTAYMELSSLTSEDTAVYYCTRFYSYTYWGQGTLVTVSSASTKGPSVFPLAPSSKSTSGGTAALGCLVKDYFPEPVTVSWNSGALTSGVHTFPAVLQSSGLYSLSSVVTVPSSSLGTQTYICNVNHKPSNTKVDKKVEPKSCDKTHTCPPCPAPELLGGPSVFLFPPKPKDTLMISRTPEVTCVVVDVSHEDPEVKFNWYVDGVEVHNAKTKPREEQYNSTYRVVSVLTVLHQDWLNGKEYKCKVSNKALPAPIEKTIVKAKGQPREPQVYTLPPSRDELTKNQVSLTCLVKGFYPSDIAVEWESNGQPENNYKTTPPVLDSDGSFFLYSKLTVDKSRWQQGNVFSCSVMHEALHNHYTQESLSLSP
light: DIVMTQSPLSLPVTPGEPASISCQASESLVHSNRNTYLHWYLQKPGQSPQLLIYKVSNRFSGVPDRFSGSGSGTDFTLKISRVEAEDVGVYYCSQNTHVPPTFGQGTKVEIERTVAAPSVFIFPPSDEQLKSGTASVVCLLNNFYPREAKVQWKVDNALQSGNSQESVTEQDSKDSTYSLSSTLTLSKADYEKHKVYACEVTHQGLSSPVTKSFNRGEC
notes: as for B1
Turning to B18, the Ho/Con_1a in assay [1] was 105 % of control.

B19: GpH7-B3 variant S337_01G/GpL16-k0 (antibody, human IgG1, kappa)
heavy: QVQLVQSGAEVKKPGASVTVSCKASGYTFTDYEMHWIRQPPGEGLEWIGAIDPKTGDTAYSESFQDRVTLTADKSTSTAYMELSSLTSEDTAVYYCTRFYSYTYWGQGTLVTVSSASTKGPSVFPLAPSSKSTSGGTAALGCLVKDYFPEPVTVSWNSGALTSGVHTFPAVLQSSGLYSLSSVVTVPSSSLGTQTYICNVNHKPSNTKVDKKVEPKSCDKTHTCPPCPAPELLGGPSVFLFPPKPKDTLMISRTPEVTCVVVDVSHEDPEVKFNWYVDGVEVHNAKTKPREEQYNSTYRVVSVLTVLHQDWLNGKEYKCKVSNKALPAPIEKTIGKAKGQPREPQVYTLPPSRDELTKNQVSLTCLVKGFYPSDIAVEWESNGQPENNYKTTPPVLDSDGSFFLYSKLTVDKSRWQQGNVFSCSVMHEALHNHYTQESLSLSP
light: DIVMTQSPLSLPVTPGEPASISCQASESLVHSNRNTYLHWYLQKPGQSPQLLIYKVSNRFSGVPDRFSGSGSGTDFTLKISRVEAEDVGVYYCSQNTHVPPTFGQGTKVEIERTVAAPSVFIFPPSDEQLKSGTASVVCLLNNFYPREAKVQWKVDNALQSGNSQESVTEQDSKDSTYSLSSTLTLSKADYEKHKVYACEVTHQGLSSPVTKSFNRGEC
notes: as for B1
Turning to B19, in assay [1], the Ho/Con_1a was 102 % of control.

B20: GpH7-B3 variant S267_09D/GpL16-k0 (antibody, human IgG1, kappa)
heavy: not shown
light: DIVMTQSPLSLPVTPGEPASISCQASESLVHSNRNTYLHWYLQKPGQSPQLLIYKVSNRFSGVPDRFSGSGSGTDFTLKISRVEAEDVGVYYCSQNTHVPPTFGQGTKVEIERTVAAPSVFIFPPSDEQLKSGTASVVCLLNNFYPREAKVQWKVDNALQSGNSQESVTEQDSKDSTYSLSSTLTLSKADYEKHKVYACEVTHQGLSSPVTKSFNRGEC
notes: as for B1
Regarding B20, the Ho/Con_1a in assay [1] is 106 % of control.

B21: GpH7-B3 variant S298_16H/GpL16-k0 (antibody, human IgG1, kappa)
heavy: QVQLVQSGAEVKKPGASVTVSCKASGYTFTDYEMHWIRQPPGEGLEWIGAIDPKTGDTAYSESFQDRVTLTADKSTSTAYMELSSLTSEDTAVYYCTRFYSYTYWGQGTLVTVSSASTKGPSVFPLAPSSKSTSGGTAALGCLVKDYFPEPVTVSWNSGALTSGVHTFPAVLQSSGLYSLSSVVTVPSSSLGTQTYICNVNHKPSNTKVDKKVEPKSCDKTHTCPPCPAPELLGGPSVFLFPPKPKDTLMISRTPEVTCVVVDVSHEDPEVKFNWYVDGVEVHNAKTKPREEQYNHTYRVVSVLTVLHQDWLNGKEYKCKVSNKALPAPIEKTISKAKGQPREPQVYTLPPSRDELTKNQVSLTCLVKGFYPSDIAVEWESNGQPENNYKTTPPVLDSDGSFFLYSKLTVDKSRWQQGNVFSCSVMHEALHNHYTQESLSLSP
light: DIVMTQSPLSLPVTPGEPASISCQASESLVHSNRNTYLHWYLQKPGQSPQLLIYKVSNRFSGVPDRFSGSGSGTDFTLKISRVEAEDVGVYYCSQNTHVPPTFGQGTKVEIERTVAAPSVFIFPPSDEQLKSGTASVVCLLNNFYPREAKVQWKVDNALQSGNSQESVTEQDSKDSTYSLSSTLTLSKADYEKHKVYACEVTHQGLSSPVTKSFNRGEC
notes: as for B1
Take B21: the Ho/Con_1a in assay [1] is 107 % of control.
